Measurements: the supplement of paper PMC10126150
± gives the standard deviation of the averaged measurements.

System: ATP
Assay: switch fluorescence ratio, 500 uM ATP over buffer (Cy3 cluster intensity, sum of 5 cycles each) (fold (ratio)); higher = stronger signal-on switching upon ATP binding; sequences stand for … in TCGTCGGCAGCGTCAGATGTGTATAAGAGACAGTTTTTTTTTTTTTTTTTTTTTTTTT…TC
Details: aptamer strand: ATP DNA aptamer (quencher-CACCTGGGGGAGTATTGCGGAGGAAGG + anchor), 100 nM annealed; ATP concentration: 500 uM
Procedure, shortened: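 After annealing to 100 nM quencher-labelled ATP aptamer, Cy3-labelled switching-strand clusters on a modified Illumina MiSeq flow-cell were imaged in selection buffer. A second image followed after 15 min with 500 uM ATP at 22 °C, and five such buffer/ATP cycles were done, each separated by NaOH stripping and re-annealing. The fluorescence ratio, averaged per switch-domain sequence, is summed target-cycle over summed buffer-cycle Cy3 intensity per cluster, with clusters outside 100-1000 RFU excluded.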
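Further: ATP exposure 15 min at 22 °C before imaging.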

Sequence | switch fluorescence ratio
GCAGGGGGTA | 0.999 ± 0.027
AGTTTTGAG | 0.9928 ± 0.0097
TTTGAGGTAA | 1.008 ± 0.0083
TTTTAAACTT | 1.09 ± 0.15
TCCAATCTCT | 1.06 ± 0.02
GGGGACGTCA | 0.998 ± 0.012
AGCGTCAGCC | 0.99 ± 0.05
ACAAATGCAG | 1.01 ± 0.013
CGCGGTTGCG | 0.9668 ± 0.0054
TTGGGTTGCT | 1.12 ± 0.21
AGTAACCTTG | 1.02 ± 0.022
TCCAATTGGG | 1.11 ± 0.09
TACTGACGGT | 1.4 ± 0.032
GGCAACAGCG | 1.039 ± 0.003
GAGCGAGCTC | 0.988 ± 0.021
AGATATGTGT | 0.998 ± 0.013
TGCTATGGGC | 1.01 ± 0.017
ATTTCGTTTC | 1.05 ± 0.1
CAGCCTATGG | 0.991 ± 0.05
TAATATGGGC | 1.02 ± 0.034
TTATAACTCG | 0.995 ± 0.035
AATGTGGACG | 0.988 ± 0.04
TTTTGAGCTG | 1.02 ± 0.029

Sequence | switch fluorescence ratio
TTAGTAAGGA | 1.009 ± 0.0086
ATTCGTCAAT | 1.18 ± 0.13
TATGATAGGT | 0.9914 ± 0.0013
AAAGTAGTTA | 0.991 ± 0.015
ACATAATTTC | 1.03 ± 0.02
TTTTTTGAGG | 0.981 ± 0.025
GATGTCTGGG | 0.959 ± 0.027
TATGTGGTTG | 0.99 ± 0.016
ATATCGTCGG | 0.988 ± 0.028
AGTGAGTAAC | 0.9811 ± 0.0061
AATAGGGGCT | 1.02 ± 0.054
ATAGACAGGC | 1.04 ± 0.021
CATAGCTTTT | 1.01 ± 0.012
TAAATTAGCT | 1.02 ± 0.037
AGGATGGACG | 1.02 ± 0.064
ATCACGTTTT | 0.991 ± 0.051
TTTAGGGAAA | 0.961 ± 0.033
ACAAGTGATC | 1.076 ± 0.0017
ATTTCAACGT | 0.9879 ± 0.0034
TGCAACCTTT | 1.02 ± 0.014
TCGTCGATTC | 1.12 ± 0.02
CGTTAATTAC | 1.38 ± 0.036
TTAAATTTCG | 1.003 ± 0.0035

Sequence | switch fluorescence ratio
AAAACACTGG | 1.06 ± 0.053
CCGGGGTCGC | 1 ± 0.026
CACTGTGTGG | 0.987 ± 0.042
GTATGTGTCG | 1.01 ± 0.017
CCATGGGGGG | 1.11 ± 0.18
CGTACAGTGG | 1.02 ± 0.046
TGTGTTTTCG | 1 ± 0.014
ATTACGCCA | 1.17 ± 0.11
GAAGGGATGC | 1.26 ± 0.073
GTTTGTCTTT | 1.02 ± 0.012
TCAACCAAAA | 1.02 ± 0.011
TCTGGGGCCG | 1.02 ± 0.065
TTACGGTGAC | 1.17 ± 0.059
TCGGTTCAGC | 1.011 ± 0.0024
TTTAGGTCAA | 0.9943 ± 0.0031
ATCGTTGTA | 1.04 ± 0.069
ACCGGGATGC | 3.66 ± 0.26
TGTGGGGGGA | 0.983 ± 0.037
GTTCGAAAGG | 1.022 ± 0.0095
GAGATGTTTA | 0.987 ± 0.029
TTAGGGTGAT | 0.974 ± 0.059
GAAGGGGCAA | 1.18 ± 0.13
CATGTTGATG | 1.0056 ± 0.00049

Sequence | switch fluorescence ratio
CATGGCAACC | 1.158 ± 0.0094
CATTAAGGGC | 0.962 ± 0.04
AGCTTCAGTC | 1 ± 0.03
GAAAAAAGGG | 1.11 ± 0.11
AGGGGGGAGG | 0.997 ± 0.026
GGTATGGGAG | 0.9913 ± 0.001
GGGGGGGTGG | 1 ± 0.033
GGTTGGGGCT | 0.987 ± 0.039
TCGCGGTCGG | 0.997 ± 0.015
GGGGAATGAA | 1.019 ± 0.009
TTCTAAAATT | 0.992 ± 0.032
TGGTGAGGAG | 0.98 ± 0.013
GATCATAATA | 0.995 ± 0.043
CAGGGCTTAG | 1.01 ± 0.035
TTTATTGTGC | 1.03 ± 0.054
GTTGAAGAAA | 0.998 ± 0.072
AAAATCCTTG | 1.01 ± 0.04
GTAGGGGATA | 1.02 ± 0.026
AACGTGCCTG | 0.979 ± 0.077
GGGCTATAGA | 0.9984 ± 0.0095
ATACTCTGTT | 0.9926 ± 0.0031
CGGATCGACA | 0.976 ± 0.025
AGTCTGGGGC | 0.942 ± 0.023

Sequence | switch fluorescence ratio
GCAACGGGTC | 1.03 ± 0.025
ATGTTAGTCG | 1.01 ± 0.014
AAAGGCCGT | 1.016 ± 0.0077
GGGGATAAGG | 0.984 ± 0.042
GCATCCGAAG | 1.274 ± 0.0035
TTGAGTTCTC | 0.978 ± 0.016
TTTGTGTGGC | 0.99 ± 0.084
TTGGTGTCTT | 0.959 ± 0.011
CCCGCGGTTA | 1.23 ± 0.032
AGCTGGGCTC | 1.07 ± 0.016
AATGCGTATG | 1.02 ± 0.036
TGTGTAAGGC | 1.03 ± 0.038
ACGCCGCGTT | 1.42 ± 0.032
AAAATCTGGT | 1.03 ± 0.015
GGATTATATT | 1.0205 ± 0.00083
GTTGGGGAAT | 1.04 ± 0.093
CATTGAGGGT | 0.968 ± 0.052
TCGCGCGGTA | 1.007 ± 0.01
TGTTTAATGT | 1.01 ± 0.019
ACGAGGGGGA | 1.05 ± 0.016
GCCTTTGGCT | 0.996 ± 0.049
GTACTATTAT | 1.038 ± 0.0052
AGGCTAAGAT | 1.0077 ± 0.001

Sequence | switch fluorescence ratio
ACACGGGGCT | 1.01 ± 0.051
TTAATTAATA | 0.985 ± 0.013
ATTGGGTATT | 0.9749 ± 0.007
TTTTTTGCTG | 0.985 ± 0.026
AATAAGGGA | 1.03 ± 0.1
TTCCGAGTTC | 1.15 ± 0.13
CGGCTATGTT | 0.9712 ± 0.0027
GGCTGGGGT | 1.02 ± 0.034
AGGCAACCAC | 1.23 ± 0.033
AAGTTCGCTG | 1.01 ± 0.065
CAAGATGGTC | 0.987 ± 0.051
ATAGTATTGA | 0.969 ± 0.022
CTCGATGGGA | 0.974 ± 0.061
TTAGGAGGGA | 0.9949 ± 0.0064
TGAGGGGCGC | 0.988 ± 0.028
ATTTTTGAGG | 1.02 ± 0.017
GTTATTGGTA | 1.01 ± 0.018
GCGTTCGGGA | 0.984 ± 0.021
GATTGAATTG | 0.948 ± 0.027
AATTTGGTGC | 1.011 ± 0.0064
GTTTGGGGTC | 0.984 ± 0.018
CGAATTCCAC | 1.024 ± 0.0099
TTCGGTTATG | 1.01 ± 0.033

Sequence | switch fluorescence ratio
TTCGCGGCAC | 2.44 ± 1.3
TTCTGTATGT | 0.97 ± 0.029
TTCTGATCAG | 1.01 ± 0.011
ATGTGCGGGC | 1.025 ± 0.0063
GGAATTGTCC | 1.44 ± 0.69
ATGCGAGTGG | 1.01 ± 0.047
AATCCAAAAG | 1.026 ± 0.0043
ATTTTCGAGT | 1 ± 0.021
TAGACAGGGG | 1 ± 0.037
TTTTTCCATA | 1 ± 0.022
TGGGGTATGT | 1 ± 0.031
ATAGGTCTGC | 0.975 ± 0.038
CGCGTAGGGC | 1.04 ± 0.016
GGCCAATCAG | 1.018 ± 0.0024
GGGCAAGGGG | 1.02 ± 0.028
AATTTTGAGG | 0.984 ± 0.034
GTAAGGGGGA | 0.984 ± 0.031
TCGCTTGGGG | 1 ± 0.013
CGTGGTAAGG | 0.989 ± 0.026
